3 molecules from patent US20220378955A1 (ACTINIUM PHARMACEUTICALS, published 2022) can be followed below.

One assay concerns the target mouse CD45 (mouse) (UniProt P06800). The assay is described as follows: CD45+ cell-based binding assay of radiolabeled antibody.
The target of another assay is T1, human CD45 (human, UniProt P08575 26-1306).
T1 construct: whole, on cells; BC8 is said to recognize all human isoforms; also called leukocyte common antigen (LCA); T200
T1 sequence (looked up): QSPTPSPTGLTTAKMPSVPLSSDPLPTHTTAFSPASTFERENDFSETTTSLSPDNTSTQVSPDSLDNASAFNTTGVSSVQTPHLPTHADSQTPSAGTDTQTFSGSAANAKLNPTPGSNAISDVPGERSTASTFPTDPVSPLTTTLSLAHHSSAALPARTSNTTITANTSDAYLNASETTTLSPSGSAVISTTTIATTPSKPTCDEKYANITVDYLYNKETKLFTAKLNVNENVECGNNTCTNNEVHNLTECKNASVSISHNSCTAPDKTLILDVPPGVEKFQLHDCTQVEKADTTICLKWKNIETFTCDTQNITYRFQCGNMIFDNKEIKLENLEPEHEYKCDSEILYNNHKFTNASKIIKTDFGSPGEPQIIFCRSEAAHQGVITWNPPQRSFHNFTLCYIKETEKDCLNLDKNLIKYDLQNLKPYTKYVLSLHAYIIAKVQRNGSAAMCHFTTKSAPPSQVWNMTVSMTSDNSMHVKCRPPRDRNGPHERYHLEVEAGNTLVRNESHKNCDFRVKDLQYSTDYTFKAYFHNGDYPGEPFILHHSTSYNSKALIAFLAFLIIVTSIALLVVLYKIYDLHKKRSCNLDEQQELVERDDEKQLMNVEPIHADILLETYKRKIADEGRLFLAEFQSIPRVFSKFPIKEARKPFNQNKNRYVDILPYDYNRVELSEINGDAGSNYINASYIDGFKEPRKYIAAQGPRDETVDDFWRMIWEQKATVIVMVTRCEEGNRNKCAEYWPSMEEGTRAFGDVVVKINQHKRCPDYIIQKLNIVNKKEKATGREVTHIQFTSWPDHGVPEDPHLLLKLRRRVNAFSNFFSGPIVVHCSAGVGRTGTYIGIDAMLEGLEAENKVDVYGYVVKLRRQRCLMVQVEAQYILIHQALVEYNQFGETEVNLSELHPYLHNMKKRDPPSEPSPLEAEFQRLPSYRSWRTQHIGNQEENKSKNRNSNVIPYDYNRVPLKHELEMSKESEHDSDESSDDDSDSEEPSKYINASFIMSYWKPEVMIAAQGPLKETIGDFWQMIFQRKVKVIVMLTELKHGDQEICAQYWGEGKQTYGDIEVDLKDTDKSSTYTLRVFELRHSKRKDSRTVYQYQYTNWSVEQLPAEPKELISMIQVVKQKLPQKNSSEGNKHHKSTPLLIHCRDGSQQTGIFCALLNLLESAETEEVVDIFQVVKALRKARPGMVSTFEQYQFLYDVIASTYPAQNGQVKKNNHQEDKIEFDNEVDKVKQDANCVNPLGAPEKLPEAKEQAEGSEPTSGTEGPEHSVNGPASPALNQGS
The assay is described as follows: flow cytometry on Cytotrol cells, against naïve BC8 as reference. The text has this: Cytotrol cells (Beckman Coulter) were initially used to determine the binding of naïve BC8 antibody to those cells versus control 18B7 antibody (nonspecific control antibody against the fungal polysaccharide glucuronoxylomannan) by flow cytometry (FIG. 13A). The cells were taken up in RPMI medium, and the secondary antibody was PE labeled rat anti-mouse IgG1 from Biolegend.
Finally, we performed the side by side comparison of the binding of DOTA-BC8 sample to Cytotrol cells by flow cytometry (FIG. 14B), followed by immediate radiolabeling of the same sample with ²²⁵Ac and binding of the radiolabeled sample to Cytotrol cells (FIG. 14A). The binding of the DOTA-BC8 to the cells by flow cytometry (around 60% of the naïve BC8 binding) matched that of radiolabeled ²²⁵Ac-DOTA-BC8 to Cytotrol cells.
For orientation: In flow cytometry, cells or beads pass a laser one at a time.

Chain of mouse CD45 (mouse) (P06800 26-1293): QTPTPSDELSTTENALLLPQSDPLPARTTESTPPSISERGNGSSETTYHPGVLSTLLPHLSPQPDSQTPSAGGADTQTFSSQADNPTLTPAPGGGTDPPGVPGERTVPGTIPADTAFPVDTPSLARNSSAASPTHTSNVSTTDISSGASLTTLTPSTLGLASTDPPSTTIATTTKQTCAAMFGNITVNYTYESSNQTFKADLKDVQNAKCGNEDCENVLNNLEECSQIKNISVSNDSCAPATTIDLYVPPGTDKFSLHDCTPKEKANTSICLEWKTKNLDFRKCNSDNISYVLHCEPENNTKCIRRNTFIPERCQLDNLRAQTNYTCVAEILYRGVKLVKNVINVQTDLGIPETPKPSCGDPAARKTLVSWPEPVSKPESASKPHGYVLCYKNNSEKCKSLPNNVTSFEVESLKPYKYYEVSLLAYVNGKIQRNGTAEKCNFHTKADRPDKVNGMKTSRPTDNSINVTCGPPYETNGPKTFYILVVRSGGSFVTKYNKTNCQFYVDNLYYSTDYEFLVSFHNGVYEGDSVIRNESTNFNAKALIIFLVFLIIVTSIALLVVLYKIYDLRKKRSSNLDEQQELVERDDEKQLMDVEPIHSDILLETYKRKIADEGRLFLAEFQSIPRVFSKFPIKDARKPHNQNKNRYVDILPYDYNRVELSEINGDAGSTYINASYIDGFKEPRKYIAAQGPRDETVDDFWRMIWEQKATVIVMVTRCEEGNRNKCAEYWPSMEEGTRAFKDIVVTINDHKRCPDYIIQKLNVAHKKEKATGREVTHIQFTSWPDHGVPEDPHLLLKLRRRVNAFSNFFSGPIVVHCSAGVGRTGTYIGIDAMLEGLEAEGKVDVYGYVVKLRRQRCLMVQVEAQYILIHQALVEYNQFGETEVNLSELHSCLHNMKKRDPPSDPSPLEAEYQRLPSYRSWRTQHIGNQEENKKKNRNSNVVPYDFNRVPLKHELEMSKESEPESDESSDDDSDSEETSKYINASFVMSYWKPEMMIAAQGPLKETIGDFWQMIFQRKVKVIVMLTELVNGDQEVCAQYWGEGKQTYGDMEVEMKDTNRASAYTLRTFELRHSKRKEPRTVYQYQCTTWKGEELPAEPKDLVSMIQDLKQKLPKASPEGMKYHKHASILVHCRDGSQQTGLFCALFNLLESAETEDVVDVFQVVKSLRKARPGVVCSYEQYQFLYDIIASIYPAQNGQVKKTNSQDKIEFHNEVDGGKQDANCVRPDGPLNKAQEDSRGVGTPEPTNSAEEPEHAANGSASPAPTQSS

As to “^131I-labeled anti-mouse pan-CD45 antibody 30F11”, in the assay with mouse CD45 (mouse), the immunoreactivity is > 95%. The same measure, in the same setting: under “^177Lu-labeled anti-mouse pan-CD45 antibody 30F11” stands > 95%.

B1: DOTA-BC8 (BC8 conjugated with p-SCN-Bn-DOTA, batch A) (antibody, V domains shown)
VH: EVKLLESGGGLVQPGGSLKLSCAASGFDFSRYWMSWVRQAPGKGLEWIGEINPTSSTINFTPSLKDKVFISRDNAKNTLYLQMSKVRSEDTALYYCARGNYYRYGDAMDYWGQGTSVTVS
VL: DIALTQSPASLAVSLGQRATISCRASKSVSTSGYSYLHWYQQKPGQPPKLLIYLASNLESGVPARFSGSGSGTDFTLNIHPVEEEDAATYYCQHSRELPFTFGSGTKLEIKR
modifications: p-SCN-Bn-DOTA conjugated, sites not stated; p-SCN-Bn-DOTA conjugated, about 1.5 DOTA per antibody (batch A), sites not stated; Asn-141 partly deamidated to Asp
notes: Chelator conjugate of murine IgG1 BC8; also called unlabeled DOTA-BC8
Take B1: in the assay with human CD45, the “binding relative to naïve BC8” value is ~60% and the “immunoreactivity relative to naïve BC8” value is ~70%.
